The labels stand for the following.
T1: Biotinylated Prn-E (pertactin residues 38-640 with N-terminal biotinylation sequence) (B. bronchiseptica, UniProt Q03035 38-640, biotin (in vivo biotinylation of the N-terminal biotinylation sequence))
T1 chain: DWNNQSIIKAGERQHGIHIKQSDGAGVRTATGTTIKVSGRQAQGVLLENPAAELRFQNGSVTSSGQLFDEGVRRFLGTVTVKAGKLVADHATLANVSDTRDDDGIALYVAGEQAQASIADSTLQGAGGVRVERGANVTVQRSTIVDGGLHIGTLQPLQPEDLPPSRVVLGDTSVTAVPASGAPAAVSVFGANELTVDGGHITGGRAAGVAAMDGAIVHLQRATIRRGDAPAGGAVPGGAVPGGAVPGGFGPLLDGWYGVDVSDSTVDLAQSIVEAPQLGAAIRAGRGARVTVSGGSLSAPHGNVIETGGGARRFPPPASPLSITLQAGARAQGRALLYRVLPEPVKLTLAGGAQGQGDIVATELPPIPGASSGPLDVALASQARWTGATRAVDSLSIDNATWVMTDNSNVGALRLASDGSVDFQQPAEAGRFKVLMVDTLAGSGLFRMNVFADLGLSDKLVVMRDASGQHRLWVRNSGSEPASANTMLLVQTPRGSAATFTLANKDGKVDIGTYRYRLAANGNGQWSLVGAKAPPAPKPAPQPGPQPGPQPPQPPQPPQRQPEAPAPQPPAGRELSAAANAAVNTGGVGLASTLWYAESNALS

B1: Pertactin on the surface of Bvg+ B. bronchiseptica RB53 (receptor)
chain: DWNNQSIIKAGERQHGIHIKQSDGAGVRTATGTTIKVSGRQAQGVLLENPAAELRFQNGSVTSSGQLFDEGVRRFLGTVTVKAGKLVADHATLANVSDTRDDDGIALYVAGEQAQASIADSTLQGAGGVRVERGANVTVQRSTIVDGGLHIGTLQPLQPEDLPPSRVVLGDTSVTAVPASGAPAAVSVFGANELTVDGGHITGGRAAGVAAMDGAIVHLQRATIRRGDAPAGGAVPGGAVPGGAVPGGFGPLLDGWYGVDVSDSTVDLAQSIVEAPQLGAAIRAGRGARVTVSGGSLSAPHGNVIETGGGARRFPPPASPLSITLQAGARAQGRALLYRVLPEPVKLTLAGGAQGQGDIVATELPPIPGASSGPLDVALASQARWTGATRAVDSLSIDNATWVMTDNSNVGALRLASDGSVDFQQPAEAGRFKVLMVDTLAGSGLFRMNVFADLGLSDKLVVMRDASGQHRLWVRNSGSEPASANTMLLVQTPRGSAATFTLANKDGKVDIGTYRYRLAANGNGQWSLVGAKAPPAPKPAPQPGPQPGPQPPQPPQPPQRQPEAPAPQPPAGRELSAAANAAVNTGGVGLASTLWYAESNALSKRLGELRLNPDAGGAWGRGFAQRQQLDNRAGRRFDQKVAGFELGADHAVAVAGGRWHLGGLAGYTRGDRGFTGDGGGHTDSVHVGGYATYIANSGFYLDATLRASRLENDFKVAGSDGYAVKGKYRTHGVGASLEAGRRFAHADGWFLEPQAELAVFRVGGGAYRAANGLRVRDEGGSSVLGRLGLEVGKRIELAGGRQVQPYIKASVLQEFDGAGTVRTNGIAHRTELRGTRAELGLGMAAALGRGHSLYASYEYSKGPKLAMPWTFHAGYRYSW
B2: BPP-1 phage displaying Mtd-P1 (other)
chain: MSTAVQFRGGTTAQHATFTGAAREITVDTDKNTVVVHDGATAGGFPLARHDLVKTAFIKADKSAVAFTRTGNATASIKAGTIVEVNGKLVQFTADTAITMPALTAGTDYAIYVCDDGTVRADSNFSAPTGYTSTTARKVGGFHYAPGSNAAAQAGGNTTAQINEYSLWDIKFRPAALDPRGMTLVAGAFWADIYLLGVNHLTDGTSKYNVTIADGSASPKKSTKFGGDGSAAYSDGAWYNFAEVMTHHGKRLPNYNEFQALAFGTTEATSSGGTDVPTTGVNGTGATSAWNIFTSKWGVVQASGCLWTWGNEFGGVNGASEYTANTGGRGSVYAQPAAALFGGAWNGTSLSGSRAALWYSGPSFSFAFFGARGVCDHLILE

The target of experiment [1] is BPP-6 phage displaying Mtd-P6 (Bordetella bacteriophage BPP-6, UniProt Q775D6).
Experiment [2] has as its target B1.
Experiment [3] addresses T1, Biotinylated Prn-E (pertactin residues …). Briefly: SPR.

Here are results for 2 molecules from article PMC2408619 (2008).

In general, Kd refers to the free concentration of one partner at which half of the binding sites on the other are occupied at equilibrium, for simple one-to-one binding. Lower therefore signals higher affinity. A word on the koff: it is a measure of how fast the partners let go of each other.

With B1, the Kd in experiment [1] turned out to be 0.059 pM.

B2 came in with a Kd in experiment [2] of 3.7 pM. In experiment [3], this molecule yielded a koff of 0.000636 s⁻¹.
